From paper PMC6534667

Biological target: scFv PL2-6 (single-chain antibody variable fragment);Histone octamer H3 (H2A, H2B, H3, H4) (Mus musculus (mouse mAb PL2-6);Drosophila) (UniProt P84051+P02283+P02299+P84040)
Assay: ITC
Conditions: ITC: 20 mM Tris-HCl pH 7.4, 50 mM NaCl, 1 mM EDTA, 25 C; EMSA: 10 mM Tris pH 7.4, 1 mM EDTA, 30 mM NaCl, 1% Ficoll 6000, on ice 10 min, 5% acrylamide gel in …

147 bp Widom 601 DNA (W601)
Kd: 190 nM
